Reference: patent US9995740B2, “Method of determining temperature and method of detecting a target peptide” (SYSMEX CORPORATION, priority 2015, dated 2018)
Residues, ends and D or L forms follow the SMILES beside them. No end group written: not given here.

Tests used:
[1] = Isoelectric point (pI) of the peptides of Table 3; type: physicochemical
[2] = molecular target: T1, HSA (Homo sapiens, UniProt P02768); test: Kd of TMR-labeled peptide for HSA by fluorescence intensity difference and Hill's equation; type: binding; details: for suitability as linker peptide of the peptide for temperature determination (FIG. 8): classified by Kd for HSA, 500 μM or more = suitable
T1 construct: purchased Sigma-Aldrich Co. LLC
Procedure: Each of the resulting mixtures was subjected to measurement with a spectrophotofluorometer [product name: F-7000, manufactured by Hitachi High-Technologies Corporation] and the fluorescence intensity with an excitation wavelength of 540 nm and a fluorescence wavelength of 580 nm (hereinafter, referred to as “fluorescence intensity A”) was measured.
Each of the resulting mixtures was subjected to measurement with a spectrophotofluorometer [product name: F-7000, manufactured by Hitachi High-Technologies Corporation] and the fluorescence intensity with an excitation wavelength of 540 nm and a fluorescence wavelength of 580 nm (hereinafter, referred to as “fluorescence intensity B”) was measured.
Equation (I): Difference between fluorescence intensities=fluorescence intensity A−fluorescence intensity B (I)
A difference between the fluorescence intensities was determined in accordance with the above equation.

[3] = molecular target: T1, HSA; test: Hydrothermal treatment in the presence of HSA or serum, partition of peptide between supernatant and insoluble fraction (SDS-PAGE, fluorescence image); details: for band derived from the peptide in supernatant of hydrothermally-treated sample: SDS-PAGE fluorescence image
[4] = microwave hydrothermal treatment 160° C., in the presence of HSA
[5] = heat transfer 200° C. for 40 minutes, in the presence of HSA (300 or 600 μM), phosphate buffered saline

What does the source list for `CSCC[C@H](NC(=O)[C@H](CO)NC(=O)[C@H](Cc1ccc(O)cc1)NC(=O)[C@@H](N)CO)C(=O)N[C@@H](CCC(=O)O)C(=O)N[C@@H](Cc1c[nH]cn1)C(=O)N[C@@H](Cc1ccccc1)C(=O)N[C@@H](CCCNC(=N)N)C(=O)N[C@@H](Cc1c[nH]c2ccccc12)C(=O)NCC(=O)N[C@@H](CCCCN)C(=O)N1CCC[C@H]1C(=O)N[C@H](C(=O)NCC(=O)N[C@@H](CCCCN)C(=O)N[C@@H](CCCCN)C(=O)N[C@@H](CCCNC(=N)N)C(=O)N[C@@H](CCCNC(=N)N)C(=O)N1CCC[C@H]1C(=O)N[C@H](C(=O)N[C@@H](CCCCN)C(=O)N[C@H](C(=O)N[C@@H](Cc1ccc(O)cc1)C(=O)N1CCC[C@H]1C(=O)N[C@@H](CC(N)=O)C(=O)N[C@@H](C)C(=O)NCC(=O)N[C@@H](CCC(=O)O)C(=O)N[C@@H](CC(N)=O)C(=O)N[C@@H](CCC(=O)O)C(=O)N[C@@H](CO)C(=O)N[C@@H](C)C(=O)N[C@@H](CCC(=O)O)C(=O)N[C@@H](C)C(=O)N[C@@H](Cc1ccccc1)C(=O)N1CCC[C@H]1C(=O)N[C@@H](CC(C)C)C(=O)N[C@@H](CCC(=O)O)C(=O)N[C@@H](Cc1ccccc1)C(=O)O)C(C)C)C(C)C)C(C)C` [ACTH (1-39), Adrenocorticotropic hormone (ACTH) (1-39)] (H-SYSMEHFRWGKPVGKKRRPVKVYPNAGENESAEAFPLEF-OH; N-terminus and C-terminus assumed)?
pI [1]: 9.3; suitability as linker peptide of the peptide for temperature determination (FIG. 8) [2]: suitable

For `CC[C@H](C)[C@H](NC(=O)[C@H](CCC(=O)O)NC(=O)[C@H](CC(=O)O)NC(=O)[C@@H](NC(=O)[C@H](CS)NC(=O)[C@H](CC(C)C)NC(=O)[C@@H]1CCCN1C(=O)[C@H](CCCNC(=N)N)NC(=O)[C@H](Cc1c[nH]c2ccccc12)NC(=O)CNC(=O)[C@H](CS)NC(=O)[C@H](CC(C)C)NC(=O)[C@H](Cc1c[nH]c2ccccc12)NC(=O)[C@H](CCC(=O)O)NC(=O)[C@H](CC(=O)O)NC(=O)[C@@H](N)CC(=O)O)[C@@H](C)CC)C(=O)N[C@@H](CC(C)C)C(=O)N[C@@H](CCCNC(=N)N)C(=O)O` [SA21] (H-DDEWLCGWRPLCIDEILR-OH; N-terminus and C-terminus assumed), which Kd ([2]; TMR-labeled peptide, phosphate buffered saline, excitation 540 nm / fluorescence 580 nm) is on record?
Its Kd is under 500 µM.

Which pI [1] does the source give for “(Arg) 10: SEQ ID NO: 21, 10 amino acid residues” here?
The pI was 13.

And the “suitability as linker peptide of the peptide for temperature determination (FIG. 8)” value (“suitability as linker peptide” for short) [2]?
Its value is “suitable”.

What does the source list for “(Glu) 10: SEQ ID NO: 18, 10 amino acid residues”?
pI [1]: 3.5; suitability as linker peptide of the peptide for temperature determination (FIG. 8) [2]: suitable

With “(Gly) 10: SEQ ID NO: 20, 10 amino acid residues” as the compound, how does the pI [1] read?
The pI was 5.5.

What about the “suitability as linker peptide” value [2] of the same compound?
Its value is “suitable”.

With “(His)3: SEQ ID NO: 11, 3 amino acid residues (HHH; Synthetic sequence of (His)3)” as the compound, how does the pI [1] read?
Its pI is 7.

With “(Lys)10: SEQ ID NO: 6, 10 amino acid residues (KKKKKKKKKK; Synthetic sequence of (Lys)10)” as the compound, how does the pI [1] read?
Its pI is 11.

With “ACTH (1-41): SEQ ID NO: 17, 41 amino acid residues (GPSYSMEHFRWGKPVGKKRRPVKVYPNGAEDESAEAFPLEF; Synthetic sequence of ACTH (1-41))” as the compound, how does the pI [1] read?
The pI was 8.3.

And the “suitability as linker peptide” value [2]?
The value was “suitable”.

With “ACTH (2-16): SEQ ID NO: 10, 15 amino acid residues (YSMEHFRWGKPVGKK; Synthetic sequence of ACTH (2-16))” as the compound, how does the pI [1] read?
Its pI is 10.

Which pI [1] does the source give for “ACTH (7-11): SEQ ID NO: 5, 5 amino acid residues (FRWGK; Synthetic sequence of ACTH (7-11))” here?
Its pI is 11.

Which pI [1] does the source give for “Blood coagulation factor XIII (Factor XIII): SEQ ID NO: 15, 25 amino acid residues (AVPPNNSNAAEDDLPTVELQGVVPR; Synthetic sequence of Factor XIII)” here?
Its pI is 3.9.

Which pI [1] does the source give for Brain natriuretic peptide [BNP] here?
Its pI is 11.

And the “suitability as linker peptide” value [2]?
Its value is “suitable”.

With “C4a: SEQ ID NO: 23, 15 amino acid residues (NGFKSHALQLNNRQI; Synthetic sequence of C4a) [Peptide C4a]” as the compound, how does the pI [1] read?
The pI was 11.

And the “suitability as linker peptide” value [2]?
The value was “suitable”.

Which results are given for “C-peptide: SEQ ID NO: 31, 31 amino acid residues (EAEDLQVGQVELGGGPGAGSLQPLALEGSLQ; Synthetic sequence of C-peptide)”?
pI [1]: 3.5; suitability as linker peptide of the peptide for temperature determination (FIG. 8) [2]: suitable

Which “suitability as linker peptide” value [2] does the source give for Colistin here?
The value was “suitable”.

For “Cp6: SEQ ID NO: 22, 8 amino acid residues (DIGEEFNQ; Synthetic sequence of Cp6)”, which pI [1] is on record?
Its pI is 3.6.

And the “suitability as linker peptide” value [2]?
Its value is “suitable”.

For “Dynorphin A (YGGFLRRIRPKLK; Synthetic sequence of Dynorphin A)”, which pI [1] is on record?
The pI was 11.7.

What about the “suitability as linker peptide” value [2] of the same compound?
The value was “suitable”.

For “Fibrinogen α: SEQ ID NO: 12, 25 amino acid residues (DEAGSEADHEGTHSTKRGHAKSRPV; Synthetic sequence of Fibrinogen alpha)”, which pI [1] is on record?
The pI was 6.3.

Which pI [1] does the source give for “Glucagon (1-29): SEQ ID NO: 4, 29 amino acid residues” here?
Its pI is 6.8.

For “HSA 237-249 fragment: SEQ ID NO: 26, 13 amino acid residues (AWAVARLSQRFPK; Synthetic sequence of HSA237-249)”, which pI [1] is on record?
The pI was 12.

What about the “suitability as linker peptide” value [2] of the same compound?
The value was “suitable”.

Which pI [1] does the source give for “HSA 599-609 fragment: SEQ ID NO: 30, 11 amino acid residues (LVAASQAALGL; Synthetic sequence of HSA599-609)” here?
The pI was 5.5.

And the “suitability as linker peptide” value [2]?
Its value is “suitable”.

For “ITIH4: SEQ ID NO: 28, 21 amino acid residues (NVHSAGAAGSRMNFRPGVLSS; Synthetic sequence of ITIH4)”, which pI [1] is on record?
The pI was 12.

And the “suitability as linker peptide” value [2]?
The value was “suitable”.

With “Kininogen: SEQ ID NO: 7, 19 amino acid residues (HNLGHGHKHERDQGHGHQR; Synthetic sequence of Kininorgen)” as the compound, how does the pI [1] read?
Its pI is 8.8.

Which “band derived from the peptide in supernatant of hydrothermally-treated sample” value (from here on “band derived from the peptide”) [3, 4] does the source give for “TMR-labeled ACTH (1-24): ACTH (1-24) labeled with tetramethyl rhodamine (TMR)” here?
The value was “not observed”.

Which “band derived from the peptide” value [3, 4] does the source give for “TMR-labeled ACTH (1-39): ACTH (1-39) labeled with tetramethyl rhodamine (TMR) (SYSMEHFRWGKPVGKKRRPVKVYPNAGENESAEAFPLEF; also: tetramethyl rhodamine (TMR) label, position not given here)” here?
The value was “observed”.

With “TMR-labeled HSA 599-609 fragment: HSA 599-609 fragment labeled with tetramethyl rhodamine (TMR) (LVAASQAALGL; also: tetramethyl rhodamine (TMR) label, position not given here)” as the compound, how does the “band derived from the peptide” value [3, 5] read?
The value was “observed”.

Which “partition of peptide after hydrothermal treatment” value ([3]; 160° C., serum-containing sample M, observed under visible light) does the source give for “TMR-labeled SA21: SA21 labeled with tetramethyl rhodamine; used as peptide for phase partition determination (DDEWLCGWRPLCIDEILR; cysteine pairing not given here; also: tetramethyl rhodamine (TMR) label, position not given here)” here?
The value was “transferred to the insoluble fraction”.

What about the “band derived from the peptide” value [3, 5] of the same compound?
The value was “light band”.

For “lqp: SEQ ID NO: 13, 12 amino acid residues (GKYFNAAEYHAQ; Synthetic sequence of lqp)”, which pI [1] is on record?
The pI was 6.8.

Which pI [1] does the source give for “β-amyloid (1-40): SEQ ID NO: 1, 40 amino acid residues” here?
Its pI is 5.3.

With “β-amyloid (1-42): SEQ ID NO: 2, 42 amino acid residues” as the compound, how does the pI [1] read?
The pI was 5.3.
